Measurements from patent US20180030151A1 (MOGAM INSTITUTE FOR BIOMEDICAL RESEARCH, published 2018).
Read-outs that look alike come from different tables or passages of the source.

Legend:
[1] = biological target: T1, recombinant human TFPI (tissue factor pathway inhibitor) (human, UniProt P10646 29-304); experiment: cell-based or functional assay
[2] = biological target: T1, recombinant human TFPI (tissue factor …); experiment: cell-based or functional assay; remark: listed apart in the source
[3] = biological target: T1, recombinant human TFPI (tissue factor …); experiment: cell-based or functional assay; remark: listed apart in the source
[4] = biological target: T1, recombinant human TFPI (tissue factor …); experiment: cell-based or functional assay; remark: listed apart in the source
[5] = biological target: T1, recombinant human TFPI (tissue factor …); experiment: cell-based or functional assay; remark: listed apart in the source
[6] = biological target: T1, recombinant human TFPI (tissue factor …); experiment: cell-based or functional assay; remark: listed apart in the source
[7] = biological target: T1, recombinant human TFPI (tissue factor …); experiment: cell-based or functional assay; remark: listed apart in the source
[8] = biological target: T1, recombinant human TFPI (tissue factor …); experiment: cell-based or functional assay; remark: listed apart in the source
[9] = biological target: T1, recombinant human TFPI (tissue factor …); experiment: cell-based or functional assay; remark: listed apart in the source
[10] = biological target: T1, recombinant human TFPI (tissue factor …); experiment: cell-based or functional assay; remark: listed apart in the source
[11] = biological target: T1, recombinant human TFPI (tissue factor …); experiment: cell-based or functional assay; remark: listed apart in the source
[12] = biological target: T1, recombinant human TFPI (tissue factor …); experiment: cell-based or functional assay; remark: listed apart in the source
[13] = biological target: T1, recombinant human TFPI (tissue factor …); experiment: cell-based or functional assay; remark: listed apart in the source
[14] = biological target: T1, recombinant human TFPI (tissue factor …); experiment: cell-based or functional assay; remark: listed apart in the source
[15] = biological target: T1, recombinant human TFPI (tissue factor …); experiment: cell-based or functional assay; remark: listed apart in the source
[16] = biological target: T1, recombinant human TFPI (tissue factor …); experiment: SPR, Biacore T-200; TFPI immobilised on CM5 chip, IgG as analyte
Method: 10 mM of glycine-HCl (pH 1.5) was run at a flow rate of 30 μL/min for 30 seconds, thereby inducing the dissociation of the antibody associated with the TFPI. The affinity in terms of kinetic rate constants (Kₒₙ and Koff) and equilibrium dissociation constant

- TFPI inhibitory activity, FXa activity assay, Ab 10 nM [1]: 78.4%
- effect of inhibiting TFPI, FXa activity assay, Ab 10 nM [1]: 72%
- A405, TF/FVIIa/FX complex assay, Ab 1.56 nM [2]: 0.134
- A405, TF/FVIIa/FX complex assay, Ab 3.13 nM [2]: 0.147
- A405, TF/FVIIa/FX complex assay, Ab 6.25 nM [2]: 0.179
- A405, TF/FVIIa/FX complex assay, Ab 12.5 nM [2]: 0.242
- A405, TF/FVIIa/FX complex assay, Ab 25 nM [2]: 0.873
- A405, TF/FVIIa/FX complex assay, Ab 50 nM [2]: 0.945
- A405, TF/FVIIa/FX complex assay, Ab 100 nM [2]: 0.949
- % of Normalized, TF/FVIIa/FX complex assay, Ab 1.56 nM [3]: 14.5%
- % of Normalized, TF/FVIIa/FX complex assay, Ab 3.13 nM [3]: 16%
- % of Normalized, TF/FVIIa/FX complex assay, Ab 6.25 nM [3]: 19.4%
- % of Normalized, TF/FVIIa/FX complex assay, Ab 12.5 nM [3]: 26.3%
- % of Normalized, TF/FVIIa/FX complex assay, Ab 25 nM [3]: 95%
- % of Normalized, TF/FVIIa/FX complex assay, Ab 50 nM [3]: 103%
- % of Normalized, TF/FVIIa/FX complex assay, Ab 100 nM [3]: 103%
- A405, TF/FVIIa/FX complex assay, Ab 1.56 nM [4]: 0.145
- A405, TF/FVIIa/FX complex assay, Ab 3.13 nM [4]: 0.16
- A405, TF/FVIIa/FX complex assay, Ab 6.25 nM [4]: 0.186
- A405, TF/FVIIa/FX complex assay, Ab 12.5 nM [4]: 0.251
- A405, TF/FVIIa/FX complex assay, Ab 25 nM [4]: 0.88
- A405, TF/FVIIa/FX complex assay, Ab 50 nM [4]: 0.908
- A405, TF/FVIIa/FX complex assay, Ab 100 nM [4]: 0.945
- % of Normalized, TF/FVIIa/FX complex assay, Ab 1.56 nM [5]: 15.2%
- % of Normalized, TF/FVIIa/FX complex assay, Ab 3.13 nM [5]: 16.8%
- % of Normalized, TF/FVIIa/FX complex assay, Ab 6.25 nM [5]: 19.5%
- % of Normalized, TF/FVIIa/FX complex assay, Ab 12.5 nM [5]: 26.3%
- % of Normalized, TF/FVIIa/FX complex assay, Ab 25 nM [5]: 92.2%
- % of Normalized, TF/FVIIa/FX complex assay, Ab 50 nM [5]: 95.1%
- % of Normalized, TF/FVIIa/FX complex assay, Ab 100 nM [5]: 99%
- % of Normalized, TF/FVIIa/FX complex assay, Ab 1.56 nM [6]: 17.5%
- % of Normalized, TF/FVIIa/FX complex assay, Ab 3.13 nM [6]: 17.2%
- % of Normalized, TF/FVIIa/FX complex assay, Ab 6.25 nM [6]: 20%
- % of Normalized, TF/FVIIa/FX complex assay, Ab 12.5 nM [6]: 27.7%
- % of Normalized, TF/FVIIa/FX complex assay, Ab 25 nM [6]: 97.7%
- % of Normalized, TF/FVIIa/FX complex assay, Ab 50 nM [6]: 102%
- % of Normalized, TF/FVIIa/FX complex assay, Ab 100 nM [6]: 102%
- % of Normalized, TF/FVIIa/FX complex assay (FX 5 nM), Ab 1.56 nM [7]: 5.5%
- % of Normalized, TF/FVIIa/FX complex assay (FX 5 nM), Ab 3.13 nM [7]: 6%
- % of Normalized, TF/FVIIa/FX complex assay (FX 5 nM), Ab 6.25 nM [7]: 6.2%
- % of Normalized, TF/FVIIa/FX complex assay (FX 5 nM), Ab 12.5 nM [7]: 8.9%
- % of Normalized, TF/FVIIa/FX complex assay (FX 5 nM), Ab 25 nM [7]: 19%
- % of Normalized, TF/FVIIa/FX complex assay (FX 5 nM), Ab 50 nM [7]: 62.9%
- % of Normalized, TF/FVIIa/FX complex assay (FX 5 nM), Ab 100 nM [7]: 92%
- % of Normalized, TF/FVIIa/FX complex assay, Ab 1.56 nM [8]: 5.2%
- % of Normalized, TF/FVIIa/FX complex assay, Ab 3.13 nM [8]: 5.5%
- % of Normalized, TF/FVIIa/FX complex assay, Ab 6.25 nM [8]: 5.8%
- % of Normalized, TF/FVIIa/FX complex assay, Ab 12.5 nM [8]: 8.7%
- % of Normalized, TF/FVIIa/FX complex assay, Ab 25 nM [8]: 32.1%
- % of Normalized, TF/FVIIa/FX complex assay, Ab 50 nM [8]: 70.7%
- % of Normalized, TF/FVIIa/FX complex assay, Ab 100 nM [8]: 95.5%
- FXa assay % of FXa alone, 0.625 nM Ab, 10 nM TFPI [9]: 6%
- FXa assay % of FXa alone, 2.5 nM Ab, 10 nM TFPI [9]: 10%
- FXa assay OD, 0.625 nM Ab, 10 nM TFPI [9]: 0.061 OD
- FXa assay OD, 2.5 nM Ab, 10 nM TFPI [9]: 0.098 OD
- FXa assay OD, 10 nM Ab, 10 nM TFPI [9]: 0.753 OD
- FXa assay OD, 40 nM Ab, 10 nM TFPI [9]: 0.887 OD
- TF/FVIIa/FXa assay % of 0 nM TFPI, 12.5 nM Ab, 50 nM TFPI [10]: 21.2%
- TF/FVIIa/FXa assay % of 0 nM TFPI, 50 nM Ab, 50 nM TFPI [10]: 115%
- TF/FVIIa/FXa assay % of 0 nM TFPI, 100 nM Ab, 50 nM TFPI [10]: 113%
- TF/FVIIa/FXa assay OD, 12.5 nM Ab, 50 nM TFPI [10]: 0.17 OD
- TF/FVIIa/FXa assay OD, 25 nM Ab, 50 nM TFPI [10]: 0.696 OD
- TF/FVIIa/FXa assay OD, 50 nM Ab, 50 nM TFPI [10]: 0.924 OD
- TF/FVIIa/FXa assay OD, 100 nM Ab, 50 nM TFPI [10]: 0.907 OD
- FXa assay % of FXa alone, 2.5 nM Ab, 10 nM TFPI [11]: 17.6%
- FXa assay % of FXa alone, 5 nM Ab, 10 nM TFPI [11]: 75.9%
- FXa assay % of FXa alone, 10 nM Ab, 10 nM TFPI [11]: 85.2%
- FXa assay % of FXa alone, 20 nM Ab, 10 nM TFPI [11]: 93.3%
- FXa assay OD, 2.5 nM Ab, 10 nM TFPI [11]: 0.127
- FXa assay OD, 5 nM Ab, 10 nM TFPI [11]: 0.546
- FXa assay OD, 10 nM Ab, 10 nM TFPI [11]: 0.613
- FXa assay OD, 20 nM Ab, 10 nM TFPI [11]: 0.67
- FXa assay % of FXa alone, 2.5 nM Ab, 10 nM TFPI [12]: 9.2%
- FXa assay % of FXa alone, 5 nM Ab, 10 nM TFPI [12]: 43.8%
- FXa assay % of FXa alone, 10 nM Ab, 10 nM TFPI [12]: 75.2%
- FXa assay % of FXa alone, 20 nM Ab, 10 nM TFPI [12]: 88.6%
- FXa assay OD, 2.5 nM Ab, 10 nM TFPI [12]: 0.071
- FXa assay OD, 5 nM Ab, 10 nM TFPI [12]: 0.337
- FXa assay OD, 10 nM Ab, 10 nM TFPI [12]: 0.579
- FXa assay OD, 20 nM Ab, 10 nM TFPI [12]: 0.682
- FXa assay % of FXa alone, 2.5 nM Ab, 10 nM TFPI [13]: 9.8%
- FXa assay % of FXa alone, 5 nM Ab, 10 nM TFPI [13]: 52.1%
- FXa assay % of FXa alone, 10 nM Ab, 10 nM TFPI [13]: 69.4%
- FXa assay % of FXa alone, 20 nM Ab, 10 nM TFPI [13]: 81.8%
- FXa assay OD, 2.5 nM Ab, 10 nM TFPI [13]: 0.079
- FXa assay OD, 5 nM Ab, 10 nM TFPI [13]: 0.42
- FXa assay OD, 10 nM Ab, 10 nM TFPI [13]: 0.56
- FXa assay OD, 20 nM Ab, 10 nM TFPI [13]: 0.66
- FXa assay % of FXa alone, 2.5 nM Ab, 10 nM TFPI [14]: 7.7%
- FXa assay % of FXa alone, 5 nM Ab, 10 nM TFPI [14]: 29.9%
- FXa assay % of FXa alone, 10 nM Ab, 10 nM TFPI [14]: 56.8%
- FXa assay % of FXa alone, 20 nM Ab, 10 nM TFPI [14]: 75.6%
- FXa assay OD, 2.5 nM Ab, 10 nM TFPI [14]: 0.0625
- FXa assay OD, 5 nM Ab, 10 nM TFPI [14]: 0.242
- FXa assay OD, 10 nM Ab, 10 nM TFPI [14]: 0.461
- FXa assay OD, 20 nM Ab, 10 nM TFPI [14]: 0.614
- FXa assay % of FXa alone, 2.5 nM Ab, 10 nM TFPI [15]: 5.5%
- FXa assay % of FXa alone, 5 nM Ab, 10 nM TFPI [15]: 7.1%
- FXa assay % of FXa alone, 10 nM Ab, 10 nM TFPI [15]: 28.8%
- FXa assay % of FXa alone, 20 nM Ab, 10 nM TFPI [15]: 54.5%
- FXa assay OD, 2.5 nM Ab, 10 nM TFPI [15]: 0.048
- FXa assay OD, 5 nM Ab, 10 nM TFPI [15]: 0.062
- FXa assay OD, 10 nM Ab, 10 nM TFPI [15]: 0.251
- FXa assay OD, 20 nM Ab, 10 nM TFPI [15]: 0.474
- Kd [16]: 6.7 pM
B1: clone T417 (antibody, V domains shown)
VH: EVHLVESGGDLVKPGGSLKLSCAASGFTFSSYAMSWVRQTPDKRLEWVATITTGGSYTYYPDSVKGRFTISRDNAKNTLYLQMSSLKSEDTAMYYCARQDGNFLMDYWGQGTTVTVSS
VL: not shown
notes: also called T417 chimeric antibody
